Results published in publication PMC6987127 (Nature Communications, 2020).

Experiments:
[1] = target: T1, TrkH-TrkA complex (TrkHA) (Vibrio parahaemolyticus, UniProt Q87KD2); assay: single-channel patch clamp, inside-out patches of E. coli giant spheroplasts; format: biochemical; conditions: 150 mM KCl, 10 mM HEPES pH 7.4, same wild-type value also cited to earlier work
T1 construct: gene VP3045; full-length TrkH with C-terminal TEV site and His10; full-length TrkA with N-terminal GST cut by TEV; each made in E. coli BL21(DE3) and mixed; for patch clamp both co-expressed from modified pET vectors in E. coli giant spheroplasts; TrkH dimer with TrkA tetramer; with Trk system potassium uptake protein TrkH
T1 sequence (Q87KD2 1-458): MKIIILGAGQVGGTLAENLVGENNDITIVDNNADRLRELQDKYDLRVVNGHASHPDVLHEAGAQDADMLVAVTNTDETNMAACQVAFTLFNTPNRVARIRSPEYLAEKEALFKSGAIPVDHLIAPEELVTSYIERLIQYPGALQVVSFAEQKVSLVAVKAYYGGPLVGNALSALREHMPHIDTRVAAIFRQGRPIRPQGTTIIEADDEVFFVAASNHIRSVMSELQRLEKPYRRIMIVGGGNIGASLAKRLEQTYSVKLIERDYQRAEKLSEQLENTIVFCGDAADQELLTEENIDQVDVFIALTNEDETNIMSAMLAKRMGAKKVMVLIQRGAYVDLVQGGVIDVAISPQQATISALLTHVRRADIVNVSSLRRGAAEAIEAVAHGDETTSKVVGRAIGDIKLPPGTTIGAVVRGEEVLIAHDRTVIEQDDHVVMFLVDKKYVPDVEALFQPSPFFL
T1 sequence (Q87TN7 1-485 partner): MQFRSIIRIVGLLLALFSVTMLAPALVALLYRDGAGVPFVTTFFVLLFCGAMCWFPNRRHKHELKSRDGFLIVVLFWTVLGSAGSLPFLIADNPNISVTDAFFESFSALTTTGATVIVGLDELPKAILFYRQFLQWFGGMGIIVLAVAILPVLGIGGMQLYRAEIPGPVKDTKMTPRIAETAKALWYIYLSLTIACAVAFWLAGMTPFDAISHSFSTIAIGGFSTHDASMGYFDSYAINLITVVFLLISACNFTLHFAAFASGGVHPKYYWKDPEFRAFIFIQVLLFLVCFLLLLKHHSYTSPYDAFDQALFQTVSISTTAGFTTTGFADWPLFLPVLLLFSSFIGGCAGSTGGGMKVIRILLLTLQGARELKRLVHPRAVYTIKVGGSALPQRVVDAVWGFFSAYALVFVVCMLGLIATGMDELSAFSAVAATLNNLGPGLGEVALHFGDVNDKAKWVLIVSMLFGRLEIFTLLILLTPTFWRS

[2] = target: T1, TrkH-TrkA complex (TrkHA); assay: X-ray crystallography, […] A; format: binding; conditions: 10 mM ADP; pH 7.2; 20 °C; site: N2 domain of TrkA only
[3] = target: T1, TrkH-TrkA complex (TrkHA); assay: X-ray crystallography, […] A; format: binding; conditions: 10 mM ATPγS; MgCl2 50 mM; pH 7.3; 20 °C; sites: N1 and N2 domains of TrkA
[4] = target: TrkH from Vibrio parahaemolyticus, wild type (Vibrio parahaemolyticus) (UniProt Q87TN7)
[5] = target: TrkA from Vibrio parahaemolyticus, wild type (Vibrio parahaemolyticus); assay: crystal structure; TrkH-TrkA complex crystallised in the presence of 10 mM ADP (TrkHA-ADP), 3.53 Å; 20 °C, magnesium acetate 100 mM, HEPES pH 7.2, PEG400 26%, 2-propanol 10%
[6] = target: TrkA from Vibrio parahaemolyticus, wild type (Vibrio parahaemolyticus); assay: crystal structure; TrkH-TrkA complex crystallised in the presence of 10 mM ATPγS (TrkHA-ATPγS), 3.85 Å; 20 °C, MgCl2 50 mM, NH4H2PO4 50 mM, HEPES pH 7.3, PEG400 20%
[7] = target: TrkA from Vibrio parahaemolyticus, wild type (Vibrio parahaemolyticus); assay: cryo-EM structure; TrkH-TrkA complex frozen on grids in the presence of 10 mM ATP (TrkHA-ATP), overall 3.0 Å; 150 mM KCl, 20 mM HEPES pH 7.5, 5 mM β-mercaptoethanol, 3.5 mM DM
[8] = target: the molecule itself; assay: crystal structure; TrkH-TrkA complex crystallised in the presence of 10 mM ADP (TrkHA-ADP), 3.53 Å; 20 °C, magnesium acetate 100 mM, HEPES pH 7.2, PEG400 26%, 2-propanol 10%

Molecule: Nc1ncnc2c1ncn2[C@@H]1O[C@H](COP(=O)(O)OP(=O)(O)O)[C@@H](O)[C@H]1O [ADP]
- Popen at 5 mM ([1]; 5 mM ADP, closes channel): 0.02 ± 0.002
- X-ray crystallography, 3.53 A [2]: each TrkA has a prominent non-protein density in the N2 domain in which we modeled

Molecule: Nc1ncnc2c1ncn2[C@@H]1O[C@H](COP(=O)(O)OP(=O)(O)OP(=O)(O)O)[C@@H](O)[C@H]1O [ATP]
- Popen at 5 mM ([1]; 5 mM ATP, activator): 0.87 ± 0.003

Molecule: Nc1ncnc2c1ncn2[C@@H]1O[C@H](COP(=O)(O)OP(=O)(O)OP(O)(O)=S)[C@@H](O)[C@H]1O [ATPγS]
- X-ray crystallography, 3.85 A [3]: ATPγS is found in both the N1 and N2 domains

Molecule: TrkA from Vibrio parahaemolyticus, wild type (natural protein)
- single-channel open probability (Popen) of TrkHA wt, inside-out patches of E. coli spheroplasts, in ADP [4]: 0.02
- single-channel open probability (Popen) of TrkHA wt, inside-out patches of E. coli spheroplasts, in ATP [4]: 0.87
- single-channel open probability (Popen) of TrkHA wt, inside-out patches of E. coli spheroplasts, no ligand [4]: 0.17
- stoichiometry N [5]: 4
- stoichiometry N [6]: 4
- stoichiometry N [7]: 2

B1: TrkH from Vibrio parahaemolyticus, wild type (natural protein, UniProt Q87TN7 1-485, looked up)
chain: T1 sequence (Q87TN7 1-485 partner)
notes: TrkH, Vibrio parahaemolyticus, full-length gene in a modified pET vector; TEV protease site followed by a 10-polyhistidine tag at the C terminus; printed residue numbers run to 485; Homodimer in all three structures; also called TrkH (wt)
- stoichiometry N [8]: 2
